# Measured values reported in patent US20260258115A1.
# B1: ADI-41228 (antibody, V domains shown)
# VH: EVQLLESGPGLVKPSETLSLTCTVSGGSISSYQWNWIRQPPGKGLEWLGYVYYSGSTNYNPSLKSRVTLSVDTSKNQFSLKLSSVTAADTAVYYCARDRRDGSFVFDYWGQGTLVTVSS
# VL: QSVLIQPASVSGSPGQSITISCTGTSSDVGGYNYVSWYQQHPGKAPKLMIYDVSNRPSGISNRFSGSKSGNTASLTISGLQAEDEADYYCSSYTSSTTLVFGTGTKVTVL
# B2: ADI-41230 (antibody, V domains shown)
# VH: QVQLVQSGAEVKKPGESLKISCKASGYSFTSHYWIGWVRQMPGKGLEWMGFIFPGDSDTRYSPSLQGQVTISADKSTNTAYLQWNSLKASDTAMYYCARLEYLVSGFEYWGQGTLVTVSS
# VL: QPGLTQPHSVSESPGKTVTISCTRSSGSIASNYVHWYQQRPGSFPTTVIYEDNQRPSGVPDRFSGSIDSSSNSASLTISGLRTEDEADYYCQSYDSSNPVVFGGGTKVTVL
# B3: ADI-41231 (antibody, V domains shown)
# VH: QVQLVQSGAEVKKPGESLKISCKGSGYSFTNNWVGWVRQMPGKGLEWMGIIFPGDSDTRYSPSFRGQVTISVDTSINTAFLQWNSLGASDTAMYYCAMTDYNYSFKSWGQGTLVTVSS
# VL: NFMLTQPHSVSESPGKTITISCTRSSGNIGNNYVQWYQQRPGSSFTTVIYEDYQRPSGVPDRFSGSIDSSSNSATLTISGLKTEDEADYYCQSYDSSNPYVFGTGTKVTVL
# B4: ADI-41214 (antibody, V domains shown)
# VH: EVQLVESGGGLVQPGGSLRLSCAASGFTFSSYWMSWVRQAPGKGLEWVATIKQDGSEKYSVDSVKGRFTISRDNPKKSLYLQMNSLRAEDTAVYYCARDYRVEYYHSSDKLKRYYYYGMDVWGQGTTVTVSS
# VL: DIRVTQSPSSLSASVGDRVTITCRASQSISTYLNWYQQKPGKAPKFLIYAASSLESGVPSRFSGSGSGTDFSLTISSLQPEDFATYYCQQSYSIPITFGQGTRLEIK
# B5: ADI-41215 (antibody, V domains shown)
# VH: QVQLVESGGGVVRPGGSLRLSCAASGFTFDDYGMSWVRQAPGKGLEWVSGINWSGGSTDYADSVKGRFTISRDNAKNSLYLQMNSLRAEDTALYYCAKEGQEWELLPWYFDLWGRGTLVTVSS
# VL: QPVLTQPASVSGSPGQSITIPCTGTSSDVGIYNLVSWYQQHPGKAPKLMIYDVSKRPSGVSNRFSGSKSGNTASLTISGLQAEDEADYYCCSYAGGSTYVFGTGTKLTVL
# B6: ADI-41224 (antibody, V domains shown)
# VH: EVQLVETGGGLVQPGRSLRLSCTASGFTFGDYAMNWVRQAPGKGLEWIGIIRTKTYGGTTEYAASVKGRFTISRDDSKGIAYLQMNSLKTEDTGVYYCTMPVLNMDVWGQGTTVTVSS
# VL: QPVLTQPHSVSESPGKTVTISCTRNIGNIASNYVQWYQQRPGSSPTTVIYEDNQRPSGVPDRFSGSIDISSNSASLTISGLKTEDEADYYCQSYDSNNPWVFGGGTQLTVL
# B7: ADI-41225 (antibody, V domains shown)
# VH: EVQLVESGGGLVKPGGSLRLSCAASGFSLSDYYMTWLRQAPGKGLEWVSSIGTTSTYTNYAESVKDRFTISRDNAKNSLYLQMNSLRAEDTAVYYCARDWGFGVERGYFDLWGRGTLVTVSS
# VL: DIVLTQTPSTLSASVGDRVTITCRASQSISFWLAWYQQKPGKAPKLLIYKASTLESGVPSRFSGRGSGTDFTLTISSLQPDDFATYYCQQYNTYTWTFGQGTKVEIK
# Target: RSV postfusion F (postF), F deltaFP (Respiratory Syncytial Virus)
# Test: BLI, IgG on anti-human IgG sensor, 100 nM antigen
row,Binder,Kd [nM]
1,B1,0.618
2,B2,0.407
3,B3,0.426
4,B4,1.02
5,B5,0.563
6,B6,0.558
7,B7,0.733

# Target: RSV prefusion F (preF), DS-Cav1 (Respiratory Syncytial Virus)
# Test: BLI, IgG on anti-human IgG sensor, 100 nM antigen
row,Binder,Kd [nM]
1,B1,4.86
2,B2,1.83
3,B3,3.05
4,B4,5.7
5,B5,0.437
6,B6,0.524
7,B7,4.15

# Target: Respiratory Syncytial Virus fusion glycoprotein (RSV F) on RSV-A2 virus (Respiratory Syncytial Virus subtype A (RSV-A2))
# Test: cell-based or functional assay
row,Binder,Neutralization IC50 (RSV subtype A) [µg/mL]
1,B1,> 25
2,B2,24.1
3,B3,> 25
4,B4,> 25
5,B5,0.32
6,B6,0.13
7,B7,> 25
